Source: patent US20240141059A1 (Bristol-Myers Squibb, published 2024)
Values joined by “and” are separate entries in the source; they are usually repeats but may differ in a detail not shown here. Equal entries are not always repeated.

T1: human CD73 on cells (human, UniProt P21589 27-549)
T1 sequence (looked up): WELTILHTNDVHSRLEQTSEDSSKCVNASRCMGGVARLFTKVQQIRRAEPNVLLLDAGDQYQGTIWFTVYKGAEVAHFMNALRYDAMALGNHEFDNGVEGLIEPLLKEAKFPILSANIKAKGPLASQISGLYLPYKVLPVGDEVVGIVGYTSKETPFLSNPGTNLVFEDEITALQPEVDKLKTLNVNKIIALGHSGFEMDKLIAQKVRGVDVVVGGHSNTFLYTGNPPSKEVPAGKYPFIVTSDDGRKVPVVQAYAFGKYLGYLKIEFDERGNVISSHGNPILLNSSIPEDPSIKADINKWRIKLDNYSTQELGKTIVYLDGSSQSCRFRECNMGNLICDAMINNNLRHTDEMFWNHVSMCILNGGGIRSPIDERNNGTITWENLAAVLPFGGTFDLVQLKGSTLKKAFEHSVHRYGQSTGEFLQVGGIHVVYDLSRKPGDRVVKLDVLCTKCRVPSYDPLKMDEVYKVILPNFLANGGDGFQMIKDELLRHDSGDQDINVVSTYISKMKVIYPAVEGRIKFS

T2: N-hCD73-his (human, UniProt P21589 26-336, limits assumed)
T2 construct: monomeric in solution by SEC-MALS; also called N-terminal domain of hCD73
T2 sequence (looked up): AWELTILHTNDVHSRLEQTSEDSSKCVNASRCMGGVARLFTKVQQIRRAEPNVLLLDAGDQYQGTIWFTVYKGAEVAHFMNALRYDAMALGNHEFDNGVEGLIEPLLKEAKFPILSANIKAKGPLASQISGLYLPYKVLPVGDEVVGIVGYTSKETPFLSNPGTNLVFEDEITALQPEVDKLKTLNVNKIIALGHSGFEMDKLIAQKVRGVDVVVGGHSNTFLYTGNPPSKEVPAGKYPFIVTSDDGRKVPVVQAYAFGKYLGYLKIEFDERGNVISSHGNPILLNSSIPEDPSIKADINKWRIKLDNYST

T3: hCD73-his (human, UniProt P21589 26-546)
T3 construct: range 26-546; also called full length extracellular domain of human-CD73
T3 sequence (looked up): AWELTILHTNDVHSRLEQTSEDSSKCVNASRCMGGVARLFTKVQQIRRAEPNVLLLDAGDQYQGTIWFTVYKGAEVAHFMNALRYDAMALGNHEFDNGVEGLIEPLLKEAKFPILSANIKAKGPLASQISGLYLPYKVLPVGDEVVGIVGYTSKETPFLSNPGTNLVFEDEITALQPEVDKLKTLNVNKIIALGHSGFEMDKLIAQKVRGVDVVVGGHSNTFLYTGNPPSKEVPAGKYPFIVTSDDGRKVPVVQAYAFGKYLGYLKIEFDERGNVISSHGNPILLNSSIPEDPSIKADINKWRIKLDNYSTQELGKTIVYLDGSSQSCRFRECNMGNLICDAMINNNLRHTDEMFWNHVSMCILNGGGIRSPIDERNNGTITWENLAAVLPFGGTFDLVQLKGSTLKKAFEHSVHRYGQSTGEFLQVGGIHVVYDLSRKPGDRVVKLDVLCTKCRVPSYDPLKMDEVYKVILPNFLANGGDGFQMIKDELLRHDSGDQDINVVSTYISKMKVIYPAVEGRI


Key:
hCD40-Fc = target: T4, hCD40-Fc (human, UniProt P25942 21-193); assay: SPR, hCD40-Fc immobilized, dAb-Fc analyte, avidity
T4 construct: Immobilized on the sensor chip; not shown: Fc part of hCD40-Fc not described
T4 sequence (P25942 21-193): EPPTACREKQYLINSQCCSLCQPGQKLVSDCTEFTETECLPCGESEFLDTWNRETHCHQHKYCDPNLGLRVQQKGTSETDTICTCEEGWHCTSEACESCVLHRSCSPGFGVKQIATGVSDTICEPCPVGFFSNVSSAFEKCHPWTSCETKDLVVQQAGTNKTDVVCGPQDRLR

[1] = target: T5, purified human-CD40 monomer (human, UniProt P25942 21-193, limits assumed); assay: SPR, dAb-Fc on protein A, hCD40monomer analyte; second set
T5 construct: Soluble analyte; also called hCD40monomer
T5 sequence (P25942 21-193 limits assumed): as the sequence (P25942 21-193) above

human CD73 on cells [2] = target: T1, human CD73 on cells; assay: cell-based or functional assay
human CD73 on cells [3] = target: T1, human CD73 on cells; assay: cell-based or functional assay; remark: listed apart in the source
N-hCD73-his [4] = target: T2, N-hCD73-his; assay: SPR, mAb captured on protein A
Description: The affinity of the antibodies for human CD73 was measured to determine whether the change of the constant region affects them. The affinities were determined by Surface Plasmon Resonance (SPR) as follows. […] For these experiments, protein A (Pierce) was immobilized to a density of 3000-4000 RU on flow cells 1˜4 of a CMS sensor chip (GE Healthcare) using standard ethyl(dimethylaminopropyl) carbodiimide (EDC)/N-hydroxysuccinimide (NHS) chemistry, with ethanolamine blocking, in a running buffer of 0.01 M HEPES pH 7.4, 0.15 M NaCl, 3 mM EDTA, 0.005% v/v tween 20. […] The running buffer for the kinetic experiments was 10 mM sodium phosphate, 130 mM sodium chloride, 0.05% tween 20, pH 7.1. The surfaces were regenerated after each cycle using two 30 s pulses of 10 mM glycine pH 1.5 at a flow rate of 30 μl/min. Sensogram data was double-referenced and then fitted to a 1:1 Langmuir model using Biacore® T100 evaluation software v2.0.4, to determine the association rate constant (ka), the dissociation rate constant (kd), and the equilibrium dissociation constant (KD).

hCD73-his [5] = target: T3, hCD73-his; assay: SEC-MALS, target:mAb 1:1, 4 uM + 4 uM
Description: (§1) The structure and oligomeric state of CD73/antibody complexes in solution were examined by SEC-MALS and DLS.
(§2) The oligomeric state of CD73/antibody complexes were examined by size-exclusion chromatography coupled to an in-line multi-angle light scattering detector (SEC-MALS). Isocratic separations were performed on a Shodex PROTEIN KW-803 column connected to an Prominence Shimadzu UFLC in buffer containing 200 mM K₂HPO₄, 150 mM NaCl, pH 6.8, containing 0.02% Na azide (0.1 μm filtered) running at 0.5 mL/min. Samples were injected onto the column using a SIL-20AC Prominence Shimadzu® autosampler, and data were obtained from three online detectors connected in series: a Prominence SPD-20AD diode array UV/vis spectrophotometer followed by a Wyatt miniDAWN™ TREOS Multi-Angle Light Scattering Detector then a Wyatt Optilab T-rEX Refractive Index Detector® instrument. Data were collected and analyzed using Astra® (Wyatt) and Labsolutions® (Shimadzu) software.

N-hCD73-his [6] = target: T2, N-hCD73-his; assay: SEC-MALS, target:mAb 2:1, 8 uM + 4 uM
Description: as §1, §2

hCD73-his [7] = target: T3, hCD73-his; assay: SEC-MALS, target:mAb 1:1, 2.5 uM + 2.5 uM
Description: as §1, §2

hCD73-his [8] = target: T3, hCD73-his; assay: DLS, target:mAb 1:1, 4 uM + 4 uM; unit from the text
Description: as §1
(§3) Dynamic light scattering (DLS) studies were performed on a Wyatt DynaPro® plate reader in 384 well plates at 25° C. Experimental parameters were 20 acquisitions of 5 s each per measurement, and measurements were recorded in quadruplicate, with the average and standard deviation reported. Intensity autocorrelation functions were fitted using the “Regularization” algorithm in the Dynamics® software (Wyatt Technologies®).

N-hCD73-his [9] = target: T2, N-hCD73-his; assay: DLS, target:mAb 2:1, 8 uM + 4 uM; unit from the text
Description: as §1, §3

hCD73-his [10] = target: T3, hCD73-his; assay: DLS, target:mAb 1:1, 2.5 uM + 2.5 uM; unit from the text
Description: as §1, §3

| Binder | KDapparent (hCD40-Fc) | internalization EC50, Calu6 cells, 2 h (human CD73 on cells [2]) | internalization Ymax (% of 100 nM 11F11), Calu6 cells (human CD73 on cells [2]) | % internalization, Calu6 cells (human CD73 on cells [3]) | % internalization, H228 cells (human CD73 on cells [3]) | % internalization, H2030 cells (human CD73 on cells [3]) | % internalization, HCC15 cells (human CD73 on cells [3]) | internalization T1/2, Calu6 cells (human CD73 on cells [3]) | internalization T1/2, H228 cells (human CD73 on cells [3]) | internalization T1/2, H2030 cells (human CD73 on cells [3]) | internalization T1/2, HCC15 cells (human CD73 on cells [3]) | Kd (N-hCD73-his [4]) | koff (N-hCD73-his [4]) | kon (N-hCD73-his [4]) | MW Peak 2 (hCD73-his [5]) | MW Peak 1 (N-hCD73-his [6]) | MW Peak 1 (hCD73-his [7]) | MW Peak 2 (hCD73-his [7]) | Rh (hCD73-his [8]) | Rh (N-hCD73-his [9]) | also measured |
| --- | --- | --- | --- | --- | --- | --- | --- | --- | --- | --- | --- | --- | --- | --- | --- | --- | --- | --- | --- | --- | --- |
| 3h56-269-IgG1.3f (Fc fusion, dAb-Fc fusion protein) EVQLLESGGGLVQPGGSLRLSCAASGFTFRDYEMWWVRQAPGKGLERVSAINPQGTRTYYADSVKGRFTISRDNSKNTLYLQMNSLRAEDTAVYYCAKLPFRFSDRGQGTLVTVSSASTEPKSCDKTHTCPPCPAPEAEGAPSVFLFPPKPKDTLMISRTPEVTCVVVDVSHEDPEVKFNWYVDGVEVHNAKTKPREEQYNSTYRVVSVLTVLHQDWLNGKEYKCKVSNKALPAPIEKTISKAKGQPREPQVYTLPPSREEMTKNQVSLTCLVKGFYPSDIAVEWESNGQPENNYKTTPPVLDSDGSFFLYSKLTVDKSRWQQGNVFSCSVMHEALHNHYTQKSLSLSPGK | < 1 nM |  |  |  |  |  |  |  |  |  |  |  |  |  |  |  |  |  |  |  | Kd [1]: 9.8 nM; koff [1]: 0.00011 s⁻¹; kon [1]: 11000 M⁻¹ s⁻¹ |
| 3h56-269-IgG1.1f (Fc fusion, dAb-Fc fusion protein) EVQLLESGGGLVQPGGSLRLSCAASGFTFRDYEMWWVRQAPGKGLERVSAINPQGTRTYYADSVKGRFTISRDNSKNTLYLQMNSLRAEDTAVYYCAKLPFRFSDRGQGTLVTVSSASTEPKSCDKTHTCPPCPAPEAEGAPSVFLFPPKPKDTLMISRTPEVTCVVVDVSHEDPEVKFNWYVDGVEVHNAKTKPREEQYNSTYRVVSVLTVLHQDWLNGKEYKCKVSNKALPSSIEKTISKAKGQPREPQVYTLPPSREEMTKNQVSLTCLVKGFYPSDIAVEWESNGQPENNYKTTPPVLDSDGSFFLYSKLTVDKSRWQQGNVFSCSVMHEALHNHYTQKSLSLSPGK | < 1 nM |  |  |  |  |  |  |  |  |  |  |  |  |  |  |  |  |  |  |  |  |
| CD73.10-IgG2-C219S (antibody, also called CD73.10-IgG2CS; CD73.10-Vh-hHC-IgG2-C219S) heavy: QVQLVESGGGVVQPGRSLRLSCAASGFTFSNYGMHWVRQAPGKGLEWVAVIWYDESNKYYPDSVKGRFTISRDNSKNTLYLQMNSLRAEDTAVYYCARGGSSWYPDSFDIWGQGTMVTVSSASTKGPSVFPLAPCSRSTSESTAALGCLVKDYFPEPVTVSWNSGALTSGVHTFPAVLQSSGLYSLSSVVTVPSSNFGTQTYTCNVDHKPSNTKVDKTVERKSCVECPPCPAPPVAGPSVFLFPPKPKDTLMISRTPEVTCVVVDVSHEDPEVQFNWYVDGVEVHNAKTKPREEQFNSTFRVVSVLTVVHQDWLNGKEYKCKVSNKGLPAPIEKTISKTKGQPREPQVYTLPPSREEMTKNQVSLTCLVKGFYPSDIAVEWESNGQPENNYKTTPPMLDSDGSFFLYSKLTVDKSRWQQGNVFSCSVMHEALHNHYTQKSLSLSPG light: not shown |  | 0.67 nM | 99% | 91% | 93% | 85% | 91% | 3 min | 9.7 min | 3.3 min | 2.6 min | 6.2 nM and 8.3 nM | 0.0014 s⁻¹ and 0.0018 s⁻¹ | 220000 M⁻¹ s⁻¹ | 3400 kDa | 210 kDa | 2200 kDa | 310 kDa | 2.9 nm | 6.5 nm | MW Peak 2 (N-hCD73-his [6]): 150 kDa; Rh (hCD73-his [10]): 23.9 nm |
| CD73.10-IgG2-C219S-IgG1.1 (antibody, also called CD73.10-IgG2CS-IgG1.1f; CD73.10-Vh-hHC-IgG2-C219S-IgG1.1f) heavy: QVQLVESGGGVVQPGRSLRLSCAASGFTFSNYGMHWVRQAPGKGLEWVAVIWYDESNKYYPDSVKGRFTISRDNSKNTLYLQMNSLRAEDTAVYYCARGGSSWYPDSFDIWGQGTMVTVSSASTKGPSVFPLAPCSRSTSESTAALGCLVKDYFPEPVTVSWNSGALTSGVHTFPAVLQSSGLYSLSSVVTVPSSNFGTQTYTCNVDHKPSNTKVDKTVERKSCVECPPCPAPPVAGPSVFLFPPKPKDTLMISRTPEVTCVVVDVSHEDPEVKFNWYVDGVEVHNAKTKPREEQYNSTYRVVSVLTVLHQDWLNGKEYKCKVSNKALPSSIEKTISKAKGQPREPQVYTLPPSREEMTKNQVSLTCLVKGFYPSDIAVEWESNGQPENNYKTTPPMLDSDGSFFLYSKLTVDKSRWQQGNVFSCSVMHEALHNHYTQKSLSLSPG light: not shown |  | 0.87 nM | 99% | 91% | 92% | 87% | 91% | 3.1 min | 9.4 min | 4.3 min | 3 min | 5.7 nM and 6.8 nM | 0.0014 s⁻¹ and 0.0016 s⁻¹ | 240000 M⁻¹ s⁻¹ and 230000 M⁻¹ s⁻¹ |  |  | 2000 kDa | 320 kDa |  |  | MW Peak 3 (hCD73-his [7]): 390 kDa; Rh (hCD73-his [10]): 25.6 nm |
| CD73.3-IgG1.1 (antibody, V domains shown, also called CD73.3-IgG1.1f; 3-Vh-hHC-IgG1.1f/4C3Vk1) VH: EVQLVESGGGLVQPGRSLRLSCAASGFTFDDYAMHWVRQAPGKGLEWVSGISWKSGSIGYADSVKGRFTISRDNAKNSLYLQMNSLRAEDTVLYYCVKGYYVILTGLDYWGQGTLVTVSS VL: not shown |  |  |  |  | -47% |  |  |  |  |  |  |  |  |  | 530 kDa | 170 kDa |  |  | 10.8 nm | 5.8 nm |  |
